# Test results as given in patent publication US20180291083A1 (IMMATICS BIOTECHNOLOGIES, published 2018).
# B1: LLWHWDTTQSLK (peptide)
# peptide: LLWHWDTTQSLK
# B2: KATGAATPK (peptide)
# peptide: KATGAATPK
# B3: ASTTVLALK (peptide)
# peptide: ASTTVLALK
# B4: KTLPAMLGTGK (peptide)
# peptide: KTLPAMLGTGK
# B5: SISNLVFTY (peptide)
# peptide: SISNLVFTY
# B6: GLLEEALFY (peptide)
# peptide: GLLEEALFY
# B7: SVLDLSVHK (peptide)
# peptide: SVLDLSVHK
# B8: KAFNQSSTLTK (peptide)
# peptide: KAFNQSSTLTK
# B9: VVFPFPVNK (peptide)
# peptide: VVFPFPVNK
# B10: KLNPQQAPLY (peptide)
# peptide: KLNPQQAPLY
# B11: RIKAPSRNTIQK (peptide)
# peptide: RIKAPSRNTIQK
# B12: RIKPPGPTAVPK (peptide)
# peptide: RIKPPGPTAVPK
# B13: RMYSQLKTLQK (peptide)
# peptide: RMYSQLKTLQK
# B14: RVLTGVFTK (peptide)
# peptide: RVLTGVFTK
# B15: RVYNIYIRR (peptide)
# peptide: RVYNIYIRR
# B16: LLNRHILAH (peptide)
# peptide: LLNRHILAH
# B17: ATGAATPKK (peptide)
# peptide: ATGAATPKK
# B18: HSYSSPSTK (peptide)
# peptide: HSYSSPSTK
# B19: ATYNKQPMYR (peptide)
# peptide: ATYNKQPMYR
# B20: RVFPSPMRI (peptide)
# peptide: RVFPSPMRI
# B21: TTVPHVFSK (peptide)
# peptide: TTVPHVFSK
# B22: YLLPSVVLL (peptide)
# peptide: YLLPSVVLL
# B23: FSLEDLVRI (peptide)
# peptide: FSLEDLVRI
# B24: ILHAQTLKI (peptide)
# peptide: ILHAQTLKI
# B25: SLFEGIYTI (peptide)
# peptide: SLFEGIYTI
# B26: YLNEKSLQL (peptide)
# peptide: YLNEKSLQL
# B27: KLGPVAVSI (peptide)
# peptide: KLGPVAVSI
# B28: FAFSGVLRA (peptide)
# peptide: FAFSGVLRA
# B29: KAYNRVIFV (peptide)
# peptide: KAYNRVIFV
# B30: FLFDKLLLI (peptide)
# peptide: FLFDKLLLI
# B31: SVADIRNAY (peptide)
# peptide: SVADIRNAY
# B32: YTDKKSIIY (peptide)
# peptide: YTDKKSIIY
# B33: GTDVLSTRY (peptide)
# peptide: GTDVLSTRY
# B34: RSDPGGGGLAY (peptide)
# peptide: RSDPGGGGLAY
# B35: YSHPQYSSY (peptide)
# peptide: YSHPQYSSY
# B36: AAADHHSLY (peptide)
# peptide: AAADHHSLY
# B37: ISEAGKDLLY (peptide)
# peptide: ISEAGKDLLY
# B38: ITDIHIKY (peptide)
# peptide: ITDIHIKY
# B39: STDSAGSSY (peptide)
# peptide: STDSAGSSY
# B40: YVDAGTPMY (peptide)
# peptide: YVDAGTPMY
# B41: HVDQDLTTY (peptide)
# peptide: HVDQDLTTY
# B42: YSDIGHLL (peptide)
# peptide: YSDIGHLL
# B43: YINPAKLTPY (peptide)
# peptide: YINPAKLTPY
# B44: LTDSEKGNSY (peptide)
# peptide: LTDSEKGNSY
# B45: YSDKEFAGSY (peptide)
# peptide: YSDKEFAGSY
# B46: WIGDKSFEY (peptide)
# peptide: WIGDKSFEY
# B47: VTEEPQRLFY (peptide)
# peptide: VTEEPQRLFY
# B48: FMDSESFYY (peptide)
# peptide: FMDSESFYY
# B49: FTDIDGQVY (peptide)
# peptide: FTDIDGQVY
# B50: TFDLTVVSY (peptide)
# peptide: TFDLTVVSY
# B51: ATDIVDSQY (peptide)
# peptide: ATDIVDSQY
# B52: LTEGHSGNYY (peptide)
# peptide: LTEGHSGNYY
# B53: VTEGVAQTSFY (peptide)
# peptide: VTEGVAQTSFY
# B54: ALDQNKMHY (peptide)
# peptide: ALDQNKMHY
# Biological target: T1, HLA-A*03:01 (human)
# T1 construct: Peptide-receptive MHC class I monomer made by UV cleavage of a UV-sensitive ligand
# Test: UV ligand exchange ELISA; exchange yield grade
# Method in brief: (§1)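 Absorbance at 450 nm after HRP anti-β2m detection gives the yield of UV-mediated ligand exchange, quantified against HLA-A*02:01/MLA-001 monomer standards. Only peptides that bind and stabilise peptide-receptive MHC keep the complex intact after UV cleavage of the conditional ligand.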
row,peptide exchange yield,Binder
1,10 to 20%,B1
2,20 to 50%,B2
3,20 to 50%,B3
4,20 to 50%,B4
5,20 to 50%,B5
6,20 to 50%,B6
7,20 to 50%,B7
8,50 to 75%,B8
9,50 to 75%,B9
10,20 to 50%,B10
11,20 to 50%,B11
12,50 to 75%,B12
13,50 to 75%,B13
14,20 to 50%,B14
15,20 to 50%,B15
16,50 to 75%,B16
17,50 to 75%,B17
18,50 to 75%,B18
19,50 to 75%,B19
20,20 to 50%,B20
21,20 to 50%,B21

# Biological target: T2, HLA-A*02:01 (human)
# T2 construct: Peptide-receptive MHC class I monomer made by UV cleavage of a UV-sensitive ligand
# Test: UV ligand exchange ELISA; exchange yield grade
# Method in brief: as §1
row,peptide exchange yield,Binder
1,> 75%,B22
2,20 to 50%,B23
3,50 to 75%,B24
4,> 75%,B25
5,> 75%,B26
6,> 75%,B27
7,20 to 50%,B28
8,50 to 75%,B29
9,> 75%,B30

# Biological target: T3, HLA-A*01:01 (human)
# T3 construct: Peptide-receptive MHC class I monomer made by UV cleavage of a UV-sensitive ligand
# Test: UV ligand exchange ELISA; exchange yield grade
# Method in brief: as §1
row,peptide exchange yield,Binder
1,20 to 50%,B31
2,50 to 75%,B32
3,50 to 75%,B33
4,50 to 75%,B34
5,20 to 50%,B35
6,50 to 75%,B36
7,50 to 75%,B37
8,> 75%,B38
9,> 75%,B39
10,50 to 75%,B40
11,20 to 50%,B41
12,20 to 50%,B42
13,20 to 50%,B43
14,50 to 75%,B44
15,> 75%,B45
16,20 to 50%,B46
17,> 75%,B47
18,10 to 20%,B48
19,50 to 75%,B49
20,20 to 50%,B50
21,50 to 75%,B51
22,50 to 75%,B52
23,> 75%,B53
24,50 to 75%,B54
